Here are results for one substance from publication PMC60004.

Assay [1] concerns the target Bombyx mori aminopeptidase N, native, 115-kDa (115-120 kDa) Cry1Aa-binding receptor (Bombyx mori (endogenous in larval midgut)). Nature of the assay: SPR.
For assay [2], the target named is Bombyx mori cadherin-like receptor BtR175, native, 175 kDa (Bombyx mori (endogenous in larval midgut)). As to the kind of experiment: SPR.

Turning to “Hybrid toxin 4109 (domains I and II of Cry1Aa, domain III of Cry1Ac)”, in assay [1], the Kd turned out to be 78 nM, the off-rate (koff) stood at 0.0015 s⁻¹ and the kon amounted to 19000 M⁻¹ s⁻¹. In assay [2], this substance yielded a dissociation constant (Kd) of 2.6 nM, an off-rate (koff) of 3.34e-05 s⁻¹ and a kon of 13000 M⁻¹ s⁻¹.

As a reminder, the Kd is the concentration at which binding is half-saturated. Read a high Kd as lower affinity. A word on the koff: it is the first-order rate constant of dissociation. A low value points to slow dissociation. The term kon denotes a measure of how fast the partners come together. Higher therefore signals faster complex formation.
